In patent US20230074436A1 (DENALI THERAPEUTICS, published 2023):
No end group written: not given here. *: point of attachment. Biotin = O=C1N[C@H]2[C@H](CS[C@H]2CCCCC(=O)*)N1

Legend:
[1] = target: T1, alpha-synuclein peptide 95-140 (human); assay: peptide ELISA, coated fragment
T1 construct: synthetic peptide coated on plate
Description: (§1) 96-well Nunc plates were coated with 1 pg/mL of the indicated synthetic peptide in PBS 50 μL/well overnight. The plates were washed three times with PBST, then blocked with 150 μL of 3% BSA in PBS for 1 hour. Purified antibody was diluted by serial dilution methods, from 10 pg/mL to 0.6 ng/ml, and 50 μL of the antibody solution was added to the peptide-coated wells. The plates were incubated for 1 hour at room temperature, then washed three times with PBST. Secondary detection antibody, goat anti-rat HRP (obtained from Southern Biotech) 1:5,000 diluted in BSA-PBS, was added to a concentration of 50 μL/well. Plates were incubated for one hour and washed three times with PBST. Plates were then developed with 50 μL/well of TMB substrate (obtained from Thermo Fisher) and quenched with 50 μL/well of 1 N sulfuric acid. The signal was quantified on a BioTek® plate reader at A450.

[2] = target: T2, alpha-synuclein peptide 61-140 (human); assay: peptide ELISA, coated fragment
T2 construct: synthetic peptide coated on plate
Description: as §1

[3] = target: T3, asyn_113-127 (human); assay: Ala-scan peptide ELISA, row B, run 1
T3 construct: also called pep1
T3 peptide: Biotin-LEDMPVDPDNEAYEM
Description: (§2) 96-well Nunc plates were coated with 50 μL per well of 1 μg/mL streptavidin (from Jackson Immuno Research Laboratory) in PBS at 4° C. overnight. The plates were washed three times with PBST, and blocked with PBS containing 3% BSA at room temperature for 1 hour. The N-terminal biotinylated peptides were dissolved in Milli Q water to a concentration of 2 mg/mL, then further diluted to a concentration of 2 μg/mL with PBS. 50 μl of the diluted peptide was applied to the streptavidin-coated plates and incubated at 4° C. overnight. 2 μg/mL of biotinylated human alpha-synuclein was used as the positive control. The plates were washed three times with PBST before use. Purified antibody was diluted by serial dilution methods, from 20 μg/mL to 1 ng/mL, and 50 μL of the antibody solution was added to the peptide-coated wells. The plates were incubated for 1 hour at room temperature, then washed three times with PBST. Secondary detection antibody (goat anti-rat HRP (obtained from Southern Biotech)) was added with 1:5,000 dilutions and incubated for 1 hour at room temperature, then washed three times with PBST. Plates were developed with 50 μL/well of TMB substrate (Thermo Fisher) and quenched with 50 μL/well of 1 N sulfuric acid. The signal was quantified on a BioTek® plate reader at A450. A parallel repeat was performed for each peptide in a separate plate.

[4] = target: T4, asyn_113-127_113A (human); assay: Ala-scan peptide ELISA, row B, run 1
T4 construct: substitution is already in the entry; also called pep2
T4 peptide: Biotin-AEDMPVDPDNEAYEM
Description: as §2

[5] = target: T5, asyn_113-127_114A (human); assay: Ala-scan peptide ELISA, row B, run 1
T5 construct: substitution is already in the entry; also called pep3
T5 peptide: Biotin-LADMPVDPDNEAYEM
Description: as §2

[6] = target: T6, asyn_113-127_115A (human); assay: Ala-scan peptide ELISA, row B, run 1
T6 construct: substitution is already in the entry; also called pep4
T6 peptide: Biotin-LEAMPVDPDNEAYEM
Description: as §2

[7] = target: T7, asyn_113-127_116A (human); assay: Ala-scan peptide ELISA, row B, run 1
T7 construct: substitution is already in the entry; also called pep5
T7 peptide: Biotin-LEDAPVDPDNEAYEM
Description: as §2

[8] = target: T8, asyn_113-127_117A (human); assay: Ala-scan peptide ELISA, row B, run 1
T8 construct: substitution is already in the entry; also called pep6
T8 peptide: Biotin-LEDMAVDPDNEAYEM
Description: as §2

[9] = target: T9, asyn_113-127_118A (human); assay: Ala-scan peptide ELISA, row B, run 1
T9 construct: substitution is already in the entry; also called pep7
T9 peptide: Biotin-LEDMPADPDNEAYEM
Description: as §2

[10] = target: T10, asyn_113-127_119A (human); assay: Ala-scan peptide ELISA, row B, run 1
T10 construct: substitution is already in the entry; also called pep8
T10 peptide: Biotin-LEDMPVAPDNEAYEM
Description: as §2

[11] = target: T11, asyn_113-127_120A (human); assay: Ala-scan peptide ELISA, row B, run 1
T11 construct: substitution is already in the entry; also called pep9
T11 peptide: Biotin-LEDMPVDADNEAYEM
Description: as §2

[12] = target: T12, asyn_113-127_121A (human); assay: Ala-scan peptide ELISA, row B, run 1
T12 construct: substitution is already in the entry; also called pep10
T12 peptide: Biotin-LEDMPVDPANEAYEM
Description: as §2

[13] = target: T13, asyn_113-127_122A (human); assay: Ala-scan peptide ELISA, row B, run 1
T13 construct: substitution is already in the entry; also called pep11
T13 peptide: Biotin-LEDMPVDPDAEAYEM
Description: as §2

[14] = target: T14, asyn_113-127_123A (human); assay: Ala-scan peptide ELISA, row B, run 1
T14 construct: substitution is already in the entry; also called pep12
T14 peptide: Biotin-LEDMPVDPDNAAYEM
Description: as §2

[15] = target: T15, asyn_113-127_124G (human); assay: Ala-scan peptide ELISA, row B, run 1
T15 construct: substitution is already in the entry; also called pep13
T15 peptide: Biotin-LEDMPVDPDNEGYEM
Description: as §2

[16] = target: T16, asyn_113-127_124P (human); assay: Ala-scan peptide ELISA, row B, run 1
T16 construct: substitution is already in the entry; also called pep14
T16 peptide: Biotin-LEDMPVDPDNEPYEM
Description: as §2

[17] = target: T17, asyn_113-127_125A (human); assay: Ala-scan peptide ELISA, row B, run 1
T17 construct: substitution is already in the entry; also called pep15
T17 peptide: Biotin-LEDMPVDPDNEAAEM
Description: as §2

[18] = target: T18, asyn_113-127_126A (human); assay: Ala-scan peptide ELISA, row B, run 1
T18 construct: substitution is already in the entry; also called pep16
T18 peptide: Biotin-LEDMPVDPDNEAYAM
Description: as §2

[19] = target: T19, asyn_113-127_127A (human); assay: Ala-scan peptide ELISA, row B, run 1
T19 construct: substitution is already in the entry; also called pep17
T19 peptide: Biotin-LEDMPVDPDNEAYEA
Description: as §2

[20] = target: T20, biotinylated human alpha-synuclein (human, UniProt P37840 1-140); assay: Ala-scan peptide ELISA, row B, run 1
Description: as §2

[21] = target: T7, asyn_113-127_116A; assay: Ala-scan peptide ELISA, row B, run 2
Description: as §2

[22] = target: T10, asyn_113-127_119A; assay: Ala-scan peptide ELISA, row B, run 2
Description: as §2

[23] = target: T11, asyn_113-127_120A; assay: Ala-scan peptide ELISA, row B, run 2
Description: as §2

[24] = target: T12, asyn_113-127_121A; assay: Ala-scan peptide ELISA, row B, run 2
Description: as §2

[25] = target: T14, asyn_113-127_123A; assay: Ala-scan peptide ELISA, row B, run 2
Description: as §2

[26] = target: T19, asyn_113-127_127A; assay: Ala-scan peptide ELISA, row B, run 2
Description: as §2

[27] = target: T3, asyn_113-127; assay: Ala-scan peptide ELISA, row E, run 2
Description: as §2

[28] = target: T4, asyn_113-127_113A; assay: Ala-scan peptide ELISA, row E, run 2
Description: as §2

[29] = target: T7, asyn_113-127_116A; assay: Ala-scan peptide ELISA, row E, run 2
Description: as §2

[30] = target: T9, asyn_113-127_118A; assay: Ala-scan peptide ELISA, row E, run 2
Description: as §2

[31] = target: T10, asyn_113-127_119A; assay: Ala-scan peptide ELISA, row E, run 2
Description: as §2

[32] = target: T14, asyn_113-127_123A; assay: Ala-scan peptide ELISA, row E, run 2
Description: as §2

[33] = target: T16, asyn_113-127_124P; assay: Ala-scan peptide ELISA, row E, run 2
Description: as §2

[34] = target: T20, biotinylated human alpha-synuclein; assay: Ala-scan peptide ELISA, row E, run 2
Description: as §2

[35] = target: human alpha-synuclein oligomers (human, UniProt P37840 1-140); assay: competition ELISA: oligomers titrated in solution against 0.6 nM antibody, free antibody read on aSyn-coated plate
Description: To measure the binding affinities of select antibodies toward oligomeric alpha-synuclein protein, purified antibodies were probed with different concentrations of human alpha-synuclein oligomers in solution, and the levels of unbound antibody were measured by ELISA analysis. In this experiment, 0.6 nM (0.1 pg/mL) of purified antibody was dissolved in phosphate-buffered saline (PBS) solution. […] The mixtures were gently shaken at room temperature for 1 hour to reach equilibrium. After that, these samples were transferred to an alpha-synuclein protein-coated ELISA plate, and antibody not bound to antigen in the previous solution was detected by direct ELISA.

B1: 20H4 (antibody, rat IgG2b, V domains shown)
VH: AVQLVESGGGLVQPKESLKISCAASGFTFSNAAMYWVRQAPGKGLELLARIRTKPNNYATYHADSVKGRFTISRDDSQSMVYLHMGNLKTEDTAMYYCTADMATGDYWGPGVMVTVSS
VL: DIQMTQSPPVLSVSVGDRVTLSCKASQNINKNLDWYQQKHGEAPKPLIYSTNNLQTGVPSRFSGSGSGTDYTLTISSLQPEDVATYYCYQYKSAWTFGGGTKLELR
notes: also called clone 20H4; rat 20H4
In the case of B1, the “antibody concentration at which ELISA is positive” value [1] is reported as < 40 ng/mL, the “antibody concentration at which ELISA is positive” value [2] is reported as < 40 ng/mL and the A450 [3] is reported as 0.501 OD. It also gave an A450 [4] of 0.462 OD, an A450 [5] of 0.471 OD and an A450 [6] of 0.486 OD. It also gave an A450 [7] of 0.501 OD, an A450 [8] of 0.527 OD and an A450 [9] of 0.509 OD. The A450 [10] was 0.058 OD, the A450 [11] was 0.393 OD and the A450 [12] was 0.49 OD. It also gave an A450 [13] of 0.058 OD, an A450 [14] of 0.546 OD and an A450 [15] of 0.366 OD. The A450 [16] was 0.047 OD, the A450 [17] was 0.049 OD and the A450 [18] was 0.35 OD. It also gave an A450 [19] of 0.333 OD, an A450 [20] of 0.711 OD and an A450 [21] of 0.433 OD. The A450 [22] was 0.056 OD, the A450 [23] was 0.24 OD and the A450 [24] was 0.317 OD. The A450 [25] was 0.378 OD, the A450 [26] was 0.429 OD and the A450 [27] was 0.242 OD. The A450 [28] was 0.237 OD, the A450 [29] was 0.247 OD and the A450 [30] was 0.256 OD. For the same binder, the A450 [31] was 0.045 OD, the A450 [32] was 0.259 OD and the A450 [33] was 0.047 OD. For the same binder, the A450 [34] was 0.531 OD and the IC50 [35] was 5.38 nM.
